The format of series [1] is in vitro ADME, human. The method, then: (§1) Stability of [18F]AlF-4: [18F]AlF-4 (3-5 MBq) was incubated at 37 °C in RPMI media (500 µL). Aliquots of the
(§2) solutions were sampled at 1, 2, 3, 4 and 5 h and diluted in H 2O for C18 RP-HPLC analysis. The diluted solutions
(§3) were centrifuged at 13,000 g for 5 min prior to analysis.
(§4) Stability of [68Ga]Ga-5: A sample of [68Ga]Ga-5 was added to serum (with or without 5 mM reduced glutathione),
(§5) in a ratio of one part radiolabelled solution to four parts of serum by volume and incubated at 37 °C. Aliquots
(§6) were taken for SE-HPLC analysis at t = 1 h, 2 h, 3 h, 4 h and 5 h.
(§7) Cell culture: The rat cancer cell line AR42J (cultured in RPMI -1640) was purchased from American Type Culture
(§8) Collection. Growth media were supplemented with 10 % foetal bovine serum (FBS), 100 units/mL penicillin , 100
(§9) µg/mL streptomycin, and 2 mM ʟ-glutamine. Cell lines were harvested twice weekly using a formulation of 0.25
(§10) % trypsin/0.53 mM EDTA in Phosphate Buffered Salt (PBS) Solution without calcium and magnesium, which was
then neutralised with the appropriate medium containing FBS. Cells were maintaine d in a humidified chamber
containing 5 % CO2 at 37 °C.
SSTR2 in vitro binding studies: [68Ga]Ga-5 was prepared as per above. The radioconjugate was then diluted with […]
(§11) by PBS wash (500 μL x 1). The radioactivity associated with each fraction were then counted using a gamma […]

The next series in a line: physchem. The conditions noted are these: pH 7.4.
Series [2] in a line: in vivo. As to conditions: mouse. Here is the method:
as §1, §2, §3, §4, §5, §6, §7, §8, §9, §10
then neutralised with the appropriate medium containing FBS. […]
as §11
isotropic voxel size. Images were co-registered and analysed using VivoQuant v.3.0 (Invicro). […]
(ROIs) were delineated for PET activity quantification in specific organs. Uptake in each ROI was expressed as a […]

The nature of series [3]: in vivo. As to conditions: BALB/c, mouse, iv, total radioactivity, Ex vivo biodistribution. Here is the method: page 9: mice under 0.8-1.5% isoflurane in oxygen anaesthesia and warmed to 37 °C for the duration of the experiment. Mice were administered [68Ga]Ga-5 (∼2-3 μg, ∼0.8-1.5 MBq) in 200 μL of PBS via intravenous tail injection. Dynamic PET scans were acquired for up to 1 h post injection, followed by a CT scan for anatomical visualisation (480 projections; helical acquisition; 55 kVp; 600 ms exposure time). PET/CT datasets were reconstructed using a Monte Carlo-based full-3D iterative algorithm (TeraTomo, Mediso) with 4 iterations, 6 subsets, and 0.4 mm isotropic voxel size. Images were co-registered and analysed using VivoQuant v.3.0 (Invicro). Regions of interest (ROIs) were delineated for PET activity quantification in specific organs. Uptake in each ROI was expressed as a percentage of injected dose per gram of tissue (% ID/g). Biodistribution studies: Following PET/CT imaging study, mice (n=4/group, one mouse from each group was not subjected to PET/CT imaging) were culled by cervical dislocation, organs were dissected, weighed, and gamma- counted along with standards prepared from the corresponding sample of injected radiolabelled conjugates. Conjugate uptake was calculated as a percentage of injected dose per gram (% ID/g) of tissue.

The text below walks through data of article PMC11633826, “Site-specific π-clamp-mediated radiosynthesis of ^68Ga and ^18F PET radiopharmaceuticals” (Chemical Communications (Cambridge, England), 2024).

Bridge positions count the residues as written; N and C are the ends. Square brackets hold non-standard residues; d marks the D form. Peptide text beside a SMILES is read from it. * marks the point of attachment. X1 = O=C(O)CN1CCN(CC(=O)O)CCN(C(CCC(=O)NCCNC(=O)CCOCCOCCOCCOCCOCCC(=O)NCCSc2c(F)c(F)c(-c3c(F)c(F)c(*)c(F)c3F)c(F)c2F)C(=O)O)CC1

As usually defined, the logD is lipophilicity at a set pH, counting ionised and neutral species. A low value points to a more hydrophilic compound. Broadly, the tissue uptake is the share of the injected amount in each gram of the tissue. With `C[C@@H](O)[C@H](NC(=O)[C@@H]1CSSC[C@H](NC(=O)[C@@H](Cc2ccccc2)NC(=O)[C@H](Cc2ccccc2)NC(=O)[C@@H]2CCCN2C(=O)[C@H](CSc2c(F)c(F)c(-c3c(F)c(F)c(SCCNC(=O)CCOCCOCCOCCOCCOCCC(=O)NCCNC(=O)CCC(C(=O)O)N4CCN(CC(=O)O)CCN(CC(=O)O)CC4)c(F)c3F)c(F)c2F)NC(=O)[C@@H](N)Cc2ccccc2)C(=O)N[C@@H](Cc2ccc(O)cc2)C(=O)N[C@H](Cc2c[nH]c3ccccc23)C(=O)N[C@@H](CCCCN)C(=O)N[C@@H]([C@@H](C)O)C(=O)N1)C(=O)O` (stereo partly shown) [[68Ga]Ga-5, [^68Ga]Ga-NODAGA-FCPF-TATE, metal not drawn] (H-FC(X1)PF[dF]CY[dW]KTCT-OH; disulfide 6-11), the “dissociation of the radiotracer in human serum” value in series [1] was 2%. Moreover, the logD in “physchem” was -0.4 ± 0.03. Moreover, the tissue uptake at 1 h in “in vivo [2]” (female, BALB/c, iv, total radioactivity, PET 68Ga radioactivity remaining in circulation) came to 13.8 ± 1.61 %ID/g; in “in vivo [3]” (Bone), 0.95 %ID/g; in the series “in vivo [3]” (Brain), 1.29 %ID/g; in “in vivo [3]” (Pituitary gland), 6.04 %ID/g; in the series “in vivo [3]” (female, Adrenal glands), 6.45 %ID/g; in the series “in vivo [3]” (female, Blood), 27.2 %ID/g. Also, the tissue uptake at 1 h came to 7.89 %ID/g in the series “in vivo [3]” (female, Heart); 9.57 %ID/g in “in vivo [3]” (female, Kidneys); 54.6 %ID/g in the series “in vivo [3]” (female, Liver); 2.76 %ID/g in the series “in vivo [3]” (female, Lower GI); 10.6 %ID/g in the series “in vivo [3]” (female, Lungs); 0.69 %ID/g in “in vivo [3]” (female, Muscle). Also, the tissue uptake at 1 h in “in vivo [3]” (female, Pancreas) is 3.49 %ID/g; in the series “in vivo [3]” (female, Spleen), 20.8 %ID/g; in “in vivo [3]” (female, Stomach) it was 2.17 %ID/g; in “in vivo [3]” (female, Upper GI), 5.64 %ID/g. Besides, in the series “in vivo [2]”, the “route of clearance from the blood pool” value is on record as “predominantly hepatically”.
